# Tests used:
# Type in all cases: biochemical
# poly(rC) = assay: Activity on an RNA (poly(rC)) template
# Description: T7 RNAP as a reverse transcriptase or RNA replicase which initiates de novo: It has been reported that T7 RNAP can use both RNA and DNA templates (Konarska and Sharp, 1989). Therefore, it was determined if the Y639F mutant would use dNTPs when transcribing an RNA template (poly(rC), see Table IV).
# Numbers give mean and range from 3 experiments. Template was at 0.2 mg/ml, polymerases at 10^−6 M. Labeling NTPs were α-P^32 rGTP, α-P^32 dGTP.
# poly(dT) = assay: Apparent miscoding on homopolymeric template poly(dT)
# Description: (§1) Transcription reactions: Transcription reactions were carried out in 40 mM Tris-Cl pH 8.0, 15 mM MgCl2, and 5 mM DTT or 20 mM Manganese Citrate pH 8.0, 5 mM DTT at 37° C. Template, polymerase, and NTP concentrations were as indicated in the legends to the figures and tables. Relative activity determinations were made by taking 4 μl aliquots of reactions at 5, 10, and 20 minute time points and spotting on to DE81 filter paper. Unincorporated nucleotides were separated from incorporated nucleotides by washing the filter paper with 0.5 M KH2PO4 pH 7.0 and retained radioactive nucleotide was quantitated with a Molecular Dynamics phosphorimager. To evaluate rNTP/dNTP selectivity, reactions were run with 4 rNTPs and pT75 as template and α-P^32 rNTPs or α-P^32 dNTPs were used to label the transcripts. The relative rate of incorporation of an rNTP vs. its cognate dNTP was determined from the relative percentages of labeled rNTP vs. dNTP incorporated into DE81 retainable RNA at 5, 10, and 20 minute time points. Apparent miscoding frequencies were determined similarly, though in this instance the template was a single-stranded homopolymer and the reaction contained the complementary unlabeled rNTP, and complementary α-P^32 rNTP or one of the 3 non-complementary α-P^32 rNTPs. The relative percentages of labeled complementary vs. non-complementary rNTPs incorporated at 5, 10 and 20 minute time points gave an apparent miscoding rate. The rNTP/dNTP selectivity assay was used to test the following T7 RNAP mutants for effects on substrate discrimination: D537S, D537E, S539A, R5S1S, D552S, R627S, K631S, L637A, Y639S, Y639F, Y639A, G640A, F644A, G645A, Q649S, […], H811S, H811A, D812A, D812E, D812S, D812N, D879E+ΔF882+ΔA883, D879E+A881T+ΔA883, D879E+F884+A885, D879E+F882Y, D879E+ΔA883, D879E+F882W, D879E.
# An increase in miscoding would be reflected in an increase in the rate of incorporation of the non-complementary NTP into RNA.
# Numbers are averages from 2 experiments and reflect the ratio of the percentages of labeled rNTPs incorporated into RNA in reactions in which unlabeled complementary rNTPs were in great excess (0.5 mM) to labeled complementary or non-complementary rNTPs. Templates were at 0.1 mg/ml. Polymerases were at 10^−8 M in Mg^2+ buffer and 10^−7 M in Mn^2+ buffer.
# *The upper number refers to results obtained in Mg^2+ buffer, the lower number to results in Mn^2+ buffer. n.d.: G640A, Y639A, Y639S were poorly active in Mn^2+ buffer, or on poly(dT) under all conditions.
# poly(dI)·poly(dC) = assay: Relative activity on poly(dI)·poly(dC)
# Description: as §1
# DNA and RNA synthesis on homopolymeric templates: T7 RNAP will synthesize poly(rG) RNAs on poly(dC) templates (Bonner, et al., 1994; Ikeda and Richardson 1987). The activity of the W.T. and mutant polymerases were measured on poly(dI)-poly(dC) with rGTP, dGTP, dGTP+rGMP (see, Table III).
# Numbers give mean and range from 3 experiments. Templates were at 0.2 mg/ml, polymerases at 10^-8 M. Labeling NTPs were α-P^32 rGTP, α-P^32 dGTP, α-P^32 rATP, α-P^32 dATP, as appropriate. rNTPs or rNMPs at 0.5 mM; dNTPs at 1 mM.
# supercoiled pT75 = assay: Relative transcription activity with different rNTP/dNTP mixes
# Description: as §1
# Relative activity of the W.T. and Y639F polymerases with different NTP combinations: The relative activities of the Y639F and W.T. polymerases with supercoiled pT75 as a template and various combinations of rNTPs/dNTPs were measured in both Mg^2+ and Mn^2+ buffers (see, Table II,).
substance,measurement,setting,value
W.T.: wild-type T7 RNA polymerase [reference compound],Activity on poly(rC) template,poly(rC); 1 mM GTP,<.5
same,Activity on poly(rC) template,poly(rC); 1 mM dGTP + .5 mM GMP,<.5
same,Activity on poly(rC) template,"poly(rC); .5 mM GTP, mean and range from 3 experiments",1000
same,Activity on poly(rC),poly(rC); dGTP or dGTP+rGMP,not measurably active
same,"Increase in miscoding rates in Mn^2+ buffer, on average",poly(dT),~5 fold
same,Relative rate of incorporation ATP/CTP,poly(dT); Mg^2+ buffer,>340
same,Relative rate of incorporation ATP/GTP,poly(dT); Mg^2+ buffer,170
same,Relative rate of incorporation ATP/UTP,poly(dT); Mg^2+ buffer,121
same,Relative rate of incorporation ATP/CTP,poly(dT); Mn^2+ buffer,77
same,Relative rate of incorporation ATP/GTP,poly(dT); Mn^2+ buffer,50
same,Relative rate of incorporation ATP/UTP,poly(dT); Mn^2+ buffer,21
same,Relative activity on poly(dI)·poly(dC),poly(dI)·poly(dC); dGTP,7.4 (5.4-12.5)
same,Relative activity on poly(dI)·poly(dC),poly(dI)·poly(dC); dGTP + rGMP,25 (20-27)
same,Relative activity on poly(dI)·poly(dC),"poly(dI)·poly(dC); rGTP, mean and range from 3 experiments",1000
same,Relative activity,"supercoiled pT75; 1 rNTP, dCTP, dATP, dGTP, with rGMP, Mg^2+",<.5
same,Relative activity,"supercoiled pT75; 1 rNTP, dCTP, dATP, dGTP, with rGMP, Mn^2+",<.5
same,Relative activity,"supercoiled pT75; 1 rNTP, dCTP, dATP, dTTP, Mg^2+",<.5
same,Relative activity,"supercoiled pT75; 1 rNTP, dCTP, dATP, dTTP, Mn^2+",<.5
same,Relative activity,"supercoiled pT75; 1 rNTP, dCTP, dATP, dUTP, Mg^2+",<.5
same,Relative activity,"supercoiled pT75; 1 rNTP, dCTP, dATP, dUTP, Mn^2+",<.5
same,Relative activity,"supercoiled pT75; 1 rNTP, dTTP, dATP, dGTP, with rGMP, Mg^2+",<.5
same,Relative activity,"supercoiled pT75; 1 rNTP, dTTP, dATP, dGTP, with rGMP, Mn^2+",<.5
same,Relative activity,"supercoiled pT75; 1 rNTP, dTTP, dCTP, dGTP, with rGMP, Mg^2+",<.5
same,Relative activity,"supercoiled pT75; 1 rNTP, dTTP, dCTP, dGTP, with rGMP, Mn^2+",<.5
same,Relative activity,"supercoiled pT75; 2 rNTPs, dATP, dGTP, rGMP, Mg^2+",<.5
same,Relative activity,"supercoiled pT75; 2 rNTPs, dATP, dGTP, rGMP, Mn^2+",<.5
same,Relative activity,"supercoiled pT75; 2 rNTPs, dATP, dTTP, Mg^2+",<.5
same,Relative activity,"supercoiled pT75; 2 rNTPs, dATP, dTTP, Mn^2+",<.5
same,Relative activity,"supercoiled pT75; 2 rNTPs, dCTP, dATP, Mg^2+",<.5
same,Relative activity,"supercoiled pT75; 2 rNTPs, dCTP, dATP, Mn^2+",.5-.9
same,Relative activity,"supercoiled pT75; 2 rNTPs, dCTP, dGTP, rGMP, Mg^2+",<.5
same,Relative activity,"supercoiled pT75; 2 rNTPs, dCTP, dGTP, rGMP, Mn^2+",<.5
same,Relative activity,"supercoiled pT75; 2 rNTPs, dCTP, dTTP, Mg^2+",2
same,Relative activity,"supercoiled pT75; 2 rNTPs, dCTP, dTTP, Mn^2+",5-7
same,Relative activity,"supercoiled pT75; 2 rNTPs, dCTP, dUTP, Mg^2+",2-6
same,Relative activity,"supercoiled pT75; 2 rNTPs, dCTP, dUTP, Mn^2+",3
same,Relative activity,"supercoiled pT75; 2 rNTPs, dTTP, dGTP, rGMP, Mg^2+",<.5
same,Relative activity,"supercoiled pT75; 2 rNTPs, dTTP, dGTP, rGMP, Mn^2+",<.5
same,Relative activity,"supercoiled pT75; 3 rNTPs, dATP, Mg^2+",1-2
same,Relative activity,"supercoiled pT75; 3 rNTPs, dATP, Mn^2+",1-2
same,Relative activity,"supercoiled pT75; 3 rNTPs, dCTP, Mg^2+",4-9
same,Relative activity,"supercoiled pT75; 3 rNTPs, dCTP, Mn^2+",15
same,Relative activity,"supercoiled pT75; 3 rNTPs, dGTP, rGMP, Mg^2+",<.5
same,Relative activity,"supercoiled pT75; 3 rNTPs, dGTP, rGMP, Mn^2+",1-3
same,Relative activity,"supercoiled pT75; 3 rNTPs, dGTP, Mg^2+",<.5
same,Relative activity,"supercoiled pT75; 3 rNTPs, dGTP, Mn^2+",.5-2
same,Relative activity,"supercoiled pT75; 3 rNTPs, dTTP, Mg^2+",11-13
same,Relative activity,"supercoiled pT75; 3 rNTPs, dTTP, Mn^2+",7-8
same,Relative activity,"supercoiled pT75; 3 rNTPs, dUTP, Mg^2+",9-11
same,Relative activity,"supercoiled pT75; 3 rNTPs, dUTP, Mn^2+",10-11
same,Relative activity,"supercoiled pT75; 4 dNTPs, rGMP, Mg^2+",<.5
same,Relative activity,"supercoiled pT75; 4 dNTPs, rGMP, Mn^2+",<.5
same,Relative activity,"supercoiled pT75; 4 rNTPs, Mg^2+",200
same,Relative activity,"supercoiled pT75; 4 rNTPs, Mn^2+",21-23
